Measured values taken from patent US20050214207A1 (published 2005).
Where “and” joins values, the source holds several entries; their conditions need not be identical. Identical values can stand only once.

What was measured:
[1] = biological target: T1, TR7-Fc fusion protein (Ala-Asp-Pro fused to E52-G184 of TR7, SEQ ID NO:3, fused to the Fc region) (human, UniProt O14763 52-184); experiment: SPR (BIAcore 2000), TR7-Fc amine-coupled to CM5 chip, antibody as analyte, 1:1 Langmuir model, double-reference subtraction, mean±STD of three experiments
T1 construct: Expressed in baculovirus with the GP signal peptide; it is read as TR7; also called TR7-Fc receptor; TRAILR2; not shown: Fc region
Description: (§1) TR7-Fc and TR2-Fc were immobilized on individual flow cells of a BIAcore CM5 sensor chip (BIAcore, Cat# BR-1000-14). Amine coupling (BIAcore, Cat# BR-1000-50) was used to covalently bind each receptor to the dextran matrix on the sensor chip. The optimal pH for this coupling was analyzed using preconcentration experiments ranging from pH 4-7 and was determined to be pH 4.0 based on the slope of the binding. The actual coupling was performed using the manual injection mode. A target level of 200 relative units (RU) was set as the goal for both flow cells. A response of 1000 RU correlates to a change in surface concentration of about 1 ng/mm² for proteins. The molecular weight of the TR7 and TR2 fusion proteins was nearly identical. The concentration of both receptors for immobilization was 5 μg/ml in 10 mM acetate, pH 4.0 (BIAcore, Cat# BR-1003-49). The entire experiment was performed at a flow rate of 5 μL/min. Contact time for the N-ethyl-N′-(3-dimethylaminoprolpyl)carbodiimide hydrochloride/Ethanolamine hydrochloride-NaOH, pH 8.5 (EDC/NHS) injection was 3 minutes. […]
(§2) Analysis of CM005G08 kinetics was performed using the BIAcore 2000 instrument with the 2000 control software, version 3.1.1. […] The off rate of CM005G08 was determined by washing the complex in the presence of HBS-EP buffer for 10 minutes. […]
(§3) The binding data were analyzed using the BIAevaluation software, version 3.1. […]

[2] = biological target: T1, TR7-Fc fusion protein (Ala-Asp-Pro …); experiment: competition ELISA: inhibition of biotinylated TRAIL binding to TR7-Fc captured on anti-human Fc
Description: Goat anti-human Fc is diluted to 0.1 micrograms/ml in coating buffer. An Immulon 4 microplate is coated with 100 microliters per well of the Goat anti-human Fc solution and incubated overnight at 4° C. The coating solution is decanted from the plate, and blocking solution is dispensed at 200 microliters per well. The plate is incubated at room temperature for 1 hour. After the 1 hour incubation period, the blocking solution is decanted from the plate and 1 microgram/mL of TR7-Fc is dispensed at 100 microliters/well and incubated for 2 hours at room temperature. After the incubation, the plate is washed five times manually using a Wheaton manifold.
Antibodies corresponding to scFvs of the present invention are (previously) prepared in a low binding dilution plate using diluent. The antibodies are prepared in duplicate and are diluted from the stock concentration with 2.5 fold dilutions for the 7 subsequent wells. If a purified form of the antibody is available, the starting concentration is 5 micrograms/mL. The positive control (TR7-Fc) is diluted from 5 micrograms/mL. 100 microliters is transferred into the ELISA plate and pre-incubated for 30 minutes at room temperature. […]
After the one-hour incubation, the plate is decanted and washed with PBST five times and blotted. […] The plate is immediately read at 450 nm using the spectrometer from Molecular Devices.

[3] = biological target: T1, TR7-Fc fusion protein (Ala-Asp-Pro …); experiment: SPR (BIAcore 2000), TR7-Fc amine-coupled to CM5 chip, antibody as analyte, separate fitting of the dissociation phase
Description: as §1, §2, §3

B1: CM005G08 whole IgG1 antibody comprising the VH and VL domains of the CM005G08 scFv (antibody, V domains shown)
VH: EVQLVQSGGGVERPGGSLRLSCAASGFTFDDYGMSWVRQAPGKGLEWVSGINWNGGSTGYADSVKGRVTISRDNAKNSLYLQMNSLRAEDTAVYYCAKILGAGRGWYFDLWGKGTTVTVSS
VL: SSELTQDPAVSVALGQTVRITCQGDSLRSYYASWYQQKPGQAPVLVIYGKNNRPSGIPDRFSGSSSGNTASLTITGAQAEDEADYYCNSRDSSGNHVVFGGGTKLTVLG
notes: Two lots were tested; also called CM05G08; IgG1 format of CM005G08
In the case of B1, the Kd [1] is reported as 0.25 nM and 0.33 nM, the IC50 [2] is reported as 5.3 nM and 6.89 nM and the koff [3] is reported as 0.00266 s⁻¹ and 0.00268 s⁻¹.
